Key:
[1] = biological target: 抗PD-1单链抗体与IgG4Fc片段融合蛋白 (anti-PD-1 scFv-IgG4 Fc fusion secreted by Meso3CAR-T-antiPD1 cells); experiment: flow cytometry on Meso3CAR-T-antiPD1 cells; 2 μL of 1 mg/mL biotin-labelled reagent, streptavidin-PE
[2] = biological target: 抗PD-1单链抗体与IgG4Fc片段融合蛋白 (anti-PD-1 scFv-IgG4 Fc fusion secreted by Meso3CAR-T-antiPD1 cells); experiment: flow cytometry on Meso3CAR-T-antiPD1 cells; 2 μL PE-labelled anti-IgG4 Fc antibody, read directly (these cells also carry Meso3CAR with an IgG4 CH2CH3 hinge)

Chain of 抗PD-1单链抗体与IgG4Fc片段融合蛋白 (anti-PD-1 scFv-IgG4 Fc fusion secreted by Meso3CAR-T-antiPD1 cells) (chain, as listed by the source): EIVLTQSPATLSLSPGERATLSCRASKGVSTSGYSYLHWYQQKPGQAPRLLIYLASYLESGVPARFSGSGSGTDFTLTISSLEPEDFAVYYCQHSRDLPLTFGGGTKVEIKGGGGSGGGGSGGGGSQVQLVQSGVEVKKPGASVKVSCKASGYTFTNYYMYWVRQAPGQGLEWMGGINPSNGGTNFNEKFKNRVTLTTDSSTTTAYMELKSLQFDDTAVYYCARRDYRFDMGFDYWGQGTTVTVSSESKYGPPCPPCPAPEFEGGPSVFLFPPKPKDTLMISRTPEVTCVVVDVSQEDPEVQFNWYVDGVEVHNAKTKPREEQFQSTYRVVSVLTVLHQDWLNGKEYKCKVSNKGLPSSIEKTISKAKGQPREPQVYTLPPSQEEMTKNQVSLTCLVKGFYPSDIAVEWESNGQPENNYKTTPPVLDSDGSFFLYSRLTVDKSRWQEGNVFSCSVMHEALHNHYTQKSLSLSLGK

Row | Substance | 阳性细胞的比例 (percent positive cells) [1] [%] | 阳性率 (percent positive cells) [2] [%]
1 | 抗PD-1抗体的抗体 (antibody against the anti-PD-1 antibody), 金斯瑞 GenScript, 货号 A01853-40, biotin-labelled | 31.6 | –
2 | PE标记的抗IgG4Fc抗体 (PE-labelled anti-IgG4 Fc antibody), Abcam, 货号 ab99825 | – | 39.9

From CN110954697A
